According to patent US20080301824A1 (CEDARS SINAI MEDICAL CENTER, published 2008):

Legend:
[1] = biological target: T1, GFP-syt11 (GFP-tagged full-length human synaptotagmin XI) (human, UniProt P42212 1-238 = GFP); assay: co-IP with anti-HA agarose from HEK293 cells, anti-GFP blot
T1 construct: also called GFP-sytXI; GFP-sytxI
Description: To determine which domain of parkin binds to synaptotagmin, several truncated parkins tagged with the HA epitope were constructed (FIG. 3A). […] Each truncated construct was coexpressed with GFP-sytxI. After 24 h, protein extracts were immunoprecipitated with rat anti-HA-conjugated agarose followed by western blot detection with anti-GFP antibody.

[2] = biological target: GAL4 binding domain-parkin(1-465) fusion encoded by pGBT9-parkin(1-465) (UniProt P04386 1-147; O60260 1-465); assay: cell-based or functional assay
[3] = biological target: T2, GAL4 binding domain-Hrs fusion encoded by pGBT9-Hrs (hepatocyte growth factor regulated kinase substrate) (UniProt P04386 1-147; O14964 1-777, limits assumed); assay: yeast two-hybrid filter assay
T2 construct: Unrelated bait control
Description: (§1) As previously described (Shibata et al., Hum. Mol. Genet. 9:1303-1313 (2000) and Scoles et al., Nat. Genet. 18:354-359 (1998)), the bait plasmid was cotransformed in yeast strain Y190 and grown on synthetic media without leucine, tryptophan, and histidine, and with 25 mM 3-amino-1,2,4-triazole and 2% glucose. The Y190 strain allows for nutritional selection of the HIS3 gene that allows growth in media lacking histidine and color selection using the LacZ gene encoding β-galactosidase. The β-galactosidase reporter was assayed on stamped nitrocellulose filters by incubating freeze-fractured colonies in Z-buffer (60 mM Na₂HPO₄, 40 mM NaH₂PO₄, 10 mM KCl, 1 mM MgSO₄, pH 7.0, 0.03 mM β-mercaptoethanol, and 2.5 μM X-gal) at 37° C. for 15 min to 8 hr. Positive clones were restreaked on synthetic media without leucine or tryptophan, and retested for β-galactosidase activity, and then pGAD10. “prey” plasmids were isolated.

[4] = biological target: T3, GAL4 binding domain-NF2 fusion encoded by pGBT9-NF2 (schwannomin tumor suppressor) (UniProt P04386 1-147; P35240 1-595, limits assumed); assay: yeast two-hybrid filter assay
T3 construct: also called pGBT9-NF1
Description: as §1

[5] = biological target: T4, GAL4 binding domain alone (pGBT9 vector control) (UniProt P04386 1-147); assay: yeast two-hybrid filter assay
T4 construct: Empty bait vector control; also called negative control vector pGBT9
Description: as §1

[6] = biological target: T5, endogenous parkin of PC12 cells (UniProt Q9JK66 1-465); assay: co-IP with mouse anti-syt1 from PC12 extracts
T5 construct: also called 50 kDa parkin band
T5 sequence (looked up): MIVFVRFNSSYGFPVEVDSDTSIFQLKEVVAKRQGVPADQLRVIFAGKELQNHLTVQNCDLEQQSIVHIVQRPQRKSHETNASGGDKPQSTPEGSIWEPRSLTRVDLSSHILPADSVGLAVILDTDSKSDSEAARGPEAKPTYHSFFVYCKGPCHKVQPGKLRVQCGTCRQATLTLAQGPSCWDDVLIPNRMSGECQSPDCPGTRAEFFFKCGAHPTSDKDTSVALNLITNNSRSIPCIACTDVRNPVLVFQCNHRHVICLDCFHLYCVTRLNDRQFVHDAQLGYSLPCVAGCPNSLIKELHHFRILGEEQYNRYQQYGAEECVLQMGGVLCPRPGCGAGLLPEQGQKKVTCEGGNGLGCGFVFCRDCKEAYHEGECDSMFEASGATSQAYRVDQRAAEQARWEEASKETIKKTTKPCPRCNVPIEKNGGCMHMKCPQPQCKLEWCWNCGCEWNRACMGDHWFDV
Description: PC12 cells were grown in DMEM containing 10% heat-inactivated serum, 5% fetal bovine serum, and penicillin/streptomycin in a 37° C. incubator with 10% CO₂. Media were changed every 3 days. PC12 cells were grown for 48 hours, and proteins were extracted in co-ip buffer (50 mM Tris-HCl, pH 7.5, 0.2% Triton X-100, 150 mM NaCl, and one protease inhibitor pellet (Roche) per 10 ml buffer). Protein extracts were precleared with mouse or rabbit IgG conjugated agarose and incubated with the respective antibodies overnight in the cold room. The primary antibodies were pulled down with anti-mouse or anti-rabbit IgG conjugate agarose for two hours. The final pellets were washed 7 times with co-ip buffer, and the coprecipitates were eluted from the secondary antibody-conjugated agarose with SDS-PAGE buffer. Co-ip products were immunoblotted with either anti-parkin or anti-syt antibodies.

[7] = biological target: endogenous parkin of human cerebral cortex (human, UniProt O60260 1-465, limits assumed); assay: co-IP from human cerebral cortex extract
Description: To determine whether parkin interacted with endogenous sytXI, protein extract from human cerebral cortex was immunoprecipitated with the anti-parka antibody. For co-immunoprecipitation of human brain extracts, a 1.4 g sample of human cerebral cortex was chopped into small pieces and resuspended in 7 ml of cold lysis buffer (100 mM Tris-HCl, pH 7.5, 150 mM NaCl, 1% Triton X-100, 0.05% SDS, 0.05% deoxycholic acid, and 1 protease inhibitor pellet/10 ml buffer). The cell suspension was homogenized by a glass homogenizer. Protein lysate was aliquoted into 1 ml aliquots and microfuged at top speed in the cold room. Protein extracts were precleared with rabbit IgG conjugated agarose and protein A conjugated agarose for 3 h at 4° C., and the precleared lysate was incubated with rabbit anti-parkA or mouse anti-sytXI antibody overnight in the cold room. The primary antibodies were pulled down with protein A conjugated agarose for 4 h at 4° C. The final pellets were washed five times with co-ip buffer, and the coprecipitates were eluted from the secondary antibody-conjugated agarose with SDS-PAGE buffer.

[8] = biological target: T6, hemaglutinin-parkin (HA-parkin), full-length wild type (UniProt O60260 1-465); assay: co-IP
T6 construct: also called pCMV-HA-parkin

B1: HA-tagged truncated parkin p294-465 (enzyme, UniProt O60260 294-465, looked up, not shown: small tags and cut ends)
chain: PNSLIKELHHFRILGEEQYNRYQQYGAEECVLQMGGVLCPRPGCGAGLLPEPDQRKVTCEGGNGLGCGFAFCRECKEAYHEGECSAVFEASGTTTQAYRVDERAAEQARWEAASKETIKKTTKPCPRCHVPVEKNGGCMHMKCPQPQCRLEWCWNCGCEWNRVCMGDHWFDV
binding result [1]: no binding

B2: GAL4 activation domain-MP23a fusion (partial clone of human synapsin-like protein, SLP, in pGAD10) (other, not shown: large carriers)
chain: SFSSSPPPGPPRIAAAAFSSPGRCGCGCPCHLLTAEPPTQDGGRLSLGPEQNLGPHPQKPGCKRAAPTYESCIKFPTRLRFIRLEVEQHHLVDIVAVTTKTGKTEATPHGMRLMNELLQPGCQGSEEKPLRPCFLIISYA
notes: also called SLP (MP23a)
β-galactosidase activity in yeast two-hybrid liquid assay, against negative control vector pGBT9 [2]: ~30 fold
binding result [3]: no binding
binding result [4]: no binding
binding result [5]: no binding

B3: HA-tagged truncated parkin p1-203 (enzyme, UniProt O60260 1-203, looked up, not shown: small tags and cut ends)
chain: MIVFVRFNSSHGFPVEVDSDTSIFQLKEVVAKRQGVPADQLRVIFAGKELRNDWTVQNCDLDQQSIVHIVQRPWRKGQEMNATGGDDPRNAAGGCEREPQSLTRVDLSSSVLPGDSVGLAVILHTDSRKDSPPAGSPAGRSIYNSFYVYCKGPCQRVQPGKLRVQCSTCRQATLTLTQGPSCWDDVLIPNRMSGECQSPHCPG
binding result [1]: no binding

B4: HA-tagged truncated parkin p294-385 (enzyme, UniProt O60260 294-385, looked up, not shown: small tags and cut ends)
chain: PNSLIKELHHFRILGEEQYNRYQQYGAEECVLQMGGVLCPRPGCGAGLLPEPDQRKVTCEGGNGLGCGFAFCRECKEAYHEGECSAVFEASG
notes: range 294-385
binding result [1]: no binding

B5: endogenous synaptotagmin 1 of PC12 cells (other, UniProt P21707 1-421, looked up)
chain: MVSASHPEALAAPVTTVATLVPHNATEPASPGEGKEDAFSKLKQKFMNELHKIPLPPWALIAIAIVAVLLVVTCCFCVCKKCLFKKKNKKKGKEKGGKNAINMKDVKDLGKTMKDQALKDDDAETGLTDGEEKEEPKEEEKLGKLQYSLDYDFQNNQLLVGIIQAAELPALDMGGTSDPYVKVFLLPDKKKKFETKVHRKTLNPVFNEQFTFKVPYSELGGKTLVMAVYDFDRFSKHDIIGEFKVPMNTVDFGHVTEEWRDLQSAEKEEQEKLGDICFSLRYVPTAGKLTVVILEAKNLKKMDVGGLSDPYVKIHLMQNGKRLKKKKTTIKKNTLNPYYNESFSFEVPFEQIQKVQVVVTVLDYDKIGKNDAIGKVFVGYNSTGAELRHWSDMLANPRRPIAQWHTLQVEEEVDAMLAVKK
notes: also called syt1; endogenous syt1
binding result [6]: binds

B6: endogenous synaptotagmin XI of human brain (other)
chain: MAEITNIRPSFDVSPVVAGLIGASVLVVCVSVTVFVWSCCHQQAEKKHKNPPYKFIHMLKGISIYPETLSNKKKIIKVRRDKDGPGREGGRRNLLVDAAEAGLLSRDKDPRGPSSGSCIDQLPIKMDYGEELRSPITSLTPGESKTTSPSSPEEDVMLGSLTFSVDYNFPKKALVVTIQEAHGLPVMDDQTQGSDPYIKMTILPDKRHRVKTRVLRKTLDPVFDETFTFYVIPYSQLQDLVLHFLVLSFDRFSRDDVIGEVMVPLAGVDPSTGKVQLTRDIIKRNIQKCISRGELQVSLSYQPVAQRMTVVVLKARHLPKMDITGLSGNPYVKVNVYYGRKRIAKKKTHVKKCTLNPIFNESFIYDIPTDLLPDISIEFLVIDFDRTTKNEVVGRLILGAHSVTASGAEHWREVCESPRKPVAKWHSLSEY
notes: Endogenous protein; also called endogenous sytXI; sytXI protein band
binding result [7]: binds

B7: full length synapsin-like protein (SLP), GFP fusion (other)
chain: MAQHIQLPGVKALVYVCFTAVLGHSVGWHRGHFGQHGLGRGAVRTRLWIRPGHATFLGQRRAGHQCRFPGSRRRQLLKEPKPSPAAPSSFSSSPPPGPPRIAAAAFSSPGRCGCGCPCHLLTAEPPTQDGGRLSLGPEQNLGPHPQKPGCKRAAPTYESCIKFPTRLRFIRLEVEQHHLVDIVAVTTKTGKTEATPHGMRLMNELLQPGCQGSEEKPLRPCFLIISYA
notes: the construct is inferred; also called the full length protein; not shown: green fluorescent protein (GFP)
binding result [8]: binds
